Laboratory results as given in patent US20230105029A1 (CHIA TAI TIANQING PHARMACEUTICAL GROUP, published 2023).
Positions count from the first letter of the chain named.

T1: marmoset monkey IL4Rα-his protein (marmoset monkey)
T1 construct: Custom made by Sino biological; no cleavage site stated; also called cal-IL4Rα-his; Cal-IL4Rα
T1 chain: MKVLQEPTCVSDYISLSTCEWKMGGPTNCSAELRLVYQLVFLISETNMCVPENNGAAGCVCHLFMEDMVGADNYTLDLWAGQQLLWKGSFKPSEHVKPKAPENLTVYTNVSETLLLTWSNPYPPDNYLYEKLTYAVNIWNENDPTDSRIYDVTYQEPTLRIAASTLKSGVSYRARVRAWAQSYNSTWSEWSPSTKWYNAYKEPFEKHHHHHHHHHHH

B1: mouse antibody B8G11F2B7G5E8 (antibody, V domains shown)
VH: EVQLQQSGADLVRPGASVKLSCTASGFNIKDTYMHWVKQRPEQGLEWVGRIDPTNGYTIYASKFQGKATITADTSSNTAYMQLSSLTSGDTAVYHCVSRRPWFAYWGQGTLVTVSA
VL: DILMTQTPLSLPVSLGAQASISCRSSQSIVHSNGNTYLEWYLQKPGQSPKLLIYKVTNRFSGVPDRFSGSGSGTDFTLKISRVEAEDLGIYYCFQGSHVPYTFGGGTKLEIK
notes: Mouse hybridoma mAb; also called Mouse B8G11F2B7G5E8; mAb B8G11F2B7G5E8
B2: chimeric antibody B8G11F2B7G5E8 (antibody, human IgG4 S228P, kappa, V domains shown)
VH: B1 VH
VL: DILMTQTPLSLPVSLGAQASISCRSSQSIVHSNGNTYLEWYLQKPGQSPKLLIYKVTNRFSGVPDRFSGSGSGTDFTLKISRVEAEDLGIYYCFQGSHVPYTFGGGTKLEIKR
notes: Mouse variable domains on human IgG4/kappa; also called Chimeric B8G11F2B7G5E8; chB8G11F2B7G5E8
B3: chimeric antibody C2C1A1A1 (antibody, human IgG4 S228P, kappa, V domains shown)
VH: EVQLVESGGGLVQPGGSLKLSCAASGFTFSTYGMSWVRQTPDKRLELVATINSNGGSTSYPDSVKGRFTISRDNAKNTLYLQMSSLKSEDTAMFYCARFFRFRNAMDYWGQGTSVTVSS
VL: DIQMTQSPASLSASVGETVTITCRTSENIYSYLAWYQQKQGKSPQFLVYNAKTLAEGVPSRFSGSGSGTQFSLNINSLQSEDFGSYYCQHYYGPPTWTFGGGTKLEIKR
notes: Mouse variable domains on human IgG4/kappa; also called Chimeric C2C1A1A1; chC2C1A1A1
B4: mouse antibody B1D2F7D3B5 (antibody, V domains shown)
VH: EVKLVESGGGLVKPGGSLKLSCAASGFTFSSYAMSWVRQTPEKRLEWVASISSGDSTYYLDSVKGRFTISRDNAMNILYLQMSSLRSEDTAVYYCERSGGSAPYWGQGTLVSVSA
VL: QIVLTQSPAIMSASPGEMVTISCSASSSVSYMYWYQQKPGSSPKPWIYRTSNLASGVPARFSGSGSGTSYSLTISSMEAEDAATYYCQQYHSFPLTFGAGTKLELK
notes: Mouse hybridoma mAb
B5: mouse antibody B9D1D11F8D8 (antibody, V domains shown)
VH: B4 VH with M75R, M82V, V92M, S112T
VL: B4 VL with E17D, S30N
notes: Mouse hybridoma mAb
B6: mouse antibody C2C1A1A1 (antibody, V domains shown)
VH: B3 VH
VL: DIQMTQSPASLSASVGETVTITCRTSENIYSYLAWYQQKQGKSPQFLVYNAKTLAEGVPSRFSGSGSGTQFSLNINSLQSEDFGSYYCQHYYGPPTWTFGGGTKLEIK
notes: Mouse hybridoma mAb; also called Mouse C2C1A1A1
B7: mouse antibody C2B2F7B7 (antibody, V domains shown)
VH: B3 VH with S59N, F94Y, F102I
VL: B6 VL with T25A, N74K, S80P, P94T
notes: Mouse hybridoma mAb

These binders were tested against T2, human IL4Rα expressed on 293F-IL4Rα cells (human, UniProt P24394 26-825) (assay: flow cytometry, 293F-IL4Rα cells).
T2 construct: whole, on cells; also called cell surface human IL4Rα
Protocol: Then, 2×10⁵ cells per well in 96 well-plates were incubated in 100 μL of the anti-IL4Rα antibodies or controls of various concentrations (starting at 80 nM with a 4-fold serial dilution) in FACS buffer for 40 minutes on ice. […] Following an incubation of 40 minutes at 4° C. in dark, cells were washed three times and resuspended in FACS buffer. Fluorescence was measured using a Becton Dickinson FACS Canto II-HTS equipment. Data was analyzed using Graphpad Prism software and EC₅₀ values were reported.
Work on B1 yielded an EC50 of 330 pM. In the case of B2, the EC50 is reported as 440 pM. Binder B3 has an EC50 of 330 pM.

What follows are binders tested against T3, recombinant human IL4Rα-his protein (in house made) (human, UniProt P24394 26-232, limits assumed) (assay: competitive ELISA, blocks biotin-IL4 binding to coated IL4Rα-his).
T3 construct: also called Human IL4Ra-his
Protocol: Serially diluted anti-IL4Rα antibodies or the controls (starting at 80 nM with a 4-fold serial dilution) in 2.5% w/v non-fatty milk in PBST, 100 μl per well, were added to the IL4Rα bound plates, and incubated with the human IL4Rα-his proteins at 37° C. for 40 minutes. Plates were washed 4 times using wash buffer, and then added and incubated for 40 minutes at 37° C. with 100 μl/well of 0.56 nM biotin-labeled human IL4 protein (Sino biological inc., Cat #11846-HNAE). Plates were washed again using wash buffer. Thereafter, the plates were added with 100 μl/well of streptavidin conjugated HRP (1:10000 dilution in PBST buffer, Jackson Immunoresearch, Cat #016-030-084) and incubated for 40 minutes at 37° C. Plates were washed again using wash buffer. Finally, TMB was added and the reaction was stopped using 1M H₂SO₄, and the absorbance was read at 450 nm. Data was analyzed using Graphpad Prism software and IC₅₀ values were reported.
In the case of B1, the IC50 is reported as 1000 pM. In the case of B2, the IC50 is reported as 1420 pM. For B3, the IC50 was 2460 pM.

The binders below were run against T3, recombinant human IL4Rα-his protein (in …) (assay: competitive ELISA, blocks biotin-IL4Rα-his binding to coated Benchmark (competitor)).
Protocol: The ability of the anti-IL4Rα antibodies of the disclosure to block benchmark-human IL4Rα binding was measured in a competitive ELISA assay. Briefly, the benchmark was coated on 96-well micro plates at 2 μg/mL in PBS, 100 μl per well, and incubated overnight at 4° C. The next day, plates were washed with wash buffer (PBS+0.05% w/v Tween-20, PBST), and blocked with 5% w/v non-fatty milk in PBST for 2 hours at 37° C. tiring plate blocking, the anti-IL4Rα antibodies of the disclosure or controls were diluted with biotin labeled human IL4Rα-his proteins (prepared in-house with SEQ ID NO: 57, 0.55 nM in 2.5% w/v non-fatty milk in PBST), starting at 100 nM with a 4-fold serial dilution, and incubated at 25° C. for 40 minutes. After plate washing, the antibody/IL4Rα-his mixtures were added to benchmark coated plates, 100 μl per well. After incubation at 37° C. for 40 minutes, plates were washed using wash buffer. Then the plates were added and incubated with 100 μl/well streptavidin conjugated HRP for 40 minutes at 37° C. to detect biotin-labeled human IL4Rα-his bound to plates. Plates were washed again using wash buffer. Finally, TMB was added and the reaction was stopped using 1M H₂SO₄, and the absorbance was read at 450 nm. Data was analyzed using Graphpad Prism software and IC₅₀ values were reported.
In the case of B1, the IC50 is reported as 20 pM. For B2, the IC50 was 1520 pM. B4 gave an IC50 of 20 pM. With B5 the IC50 was 20 pM. B6 was tested, and the IC50 was 40 pM. B3 showed an IC50 of 170 pM. B7 showed an IC50 of 720 pM.

These binders were tested against T3, recombinant human IL4Rα-his protein (in …) (assay: SPR (Biacore), antibody captured, IL4Rα-his flowed).
B1 gave a Kd of 2980 pM. Binder B2 has a Kd of 2990 pM. Work on B6 yielded a Kd of 120 pM. B3 was tested, and the Kd was 522 pM.

Biological target: T1, marmoset monkey IL4Rα-his protein
Test: indirect ELISA, coated cal-IL4Rα-his
B1 gave an EC50 of 870 pM. B2 showed an EC50 of 1010 pM. Work on B3 yielded an EC50 of 620 pM.

The binders below were run against human IL4Rα expressed on HEK293T-IL4Rα-STAT6-STAT6LUC-LB2 cells (human, UniProt P24394 26-825) (assay: cell-based or functional assay).
With B1 the “Inhibition on IL4 induced STAT6 phosphorylation (IC50, nM)” value was 0.26 nM and the “Inhibition on IL13 induced STAT6 phosphorylation (IC50, nM)” value was 0.6 nM. For B2, the “Inhibition on IL4 induced STAT6 phosphorylation (IC50, nM)” value was 0.26 nM and the “Inhibition on IL13 induced STAT6 phosphorylation (IC50, nM)” value was 0.76 nM. B6 was tested, and the “Inhibition on IL4 induced STAT6 phosphorylation (IC50, nM)” value was 0.19 nM and the “Inhibition on IL13 induced STAT6 phosphorylation (IC50, nM)” value was 0.27 nM. B3 was tested, and the “Inhibition on IL4 induced STAT6 phosphorylation (IC50, nM)” value was 0.27 nM and the “Inhibition on IL13 induced STAT6 phosphorylation (IC50, nM)” value was 0.56 nM.

Each binder was assayed against T2, human IL4Rα expressed on 293F-IL4Rα … (assay: flow cytometry, blocks biotin-IL4 binding to 293F-IL4Rα cells).
Protocol: Then, 1×10⁵ cells per well in 96 well-plates were incubated in 100 μL of the anti-IL4Rα antibodies or controls of various concentrations (starting at 80 nM with a 4-fold serial dilution) in FACS buffer for 40 minutes on ice. The plates were washed twice with FACS buffer, and added and incubated for 40 minutes at 4° C. in dark with 100 μl/well 1.67 nM biotin-labeled human IL4 protein (Sino biological inc., Cat #11846-HNAE). The plates were washed twice with FACS buffer, and then added and incubated for 40 minutes at 4° C. in dark with 100 μl/well R-Phycoerythrin Streptavidin (1:500 dilution in FACS buffer, Jackson Immunoresearch, Cat #016-110-084). Cells were washed twice and resuspended in FACS buffer. Fluorescence was measured using a Becton Dickinson FACS Canto II-HTS equipment. Data was analyzed using Graphpad Prism software and IC₅₀ values were reported.
B1 was tested, and the IC50 was 500 pM. B2 showed an IC50 of 360 pM. B3 was tested, and the IC50 was 480 pM.
